These results are taken from article PMC4760936 (PLoS ONE, 2016).

The experiment addresses staphylococcal enterotoxin B (Staphylococcus aureus, strain , UniProt P01552). The experiment is described as follows: SPR; ProteOn XPR36; […] (10 mM acetate pH 5.0); […]; Langmuir model. Conditions: both partners purified. In general terms: SPR reads the build-up and loss of mass on a sensor chip optically.

staphylococcal enterotoxin B, sequence (P01552 28-266): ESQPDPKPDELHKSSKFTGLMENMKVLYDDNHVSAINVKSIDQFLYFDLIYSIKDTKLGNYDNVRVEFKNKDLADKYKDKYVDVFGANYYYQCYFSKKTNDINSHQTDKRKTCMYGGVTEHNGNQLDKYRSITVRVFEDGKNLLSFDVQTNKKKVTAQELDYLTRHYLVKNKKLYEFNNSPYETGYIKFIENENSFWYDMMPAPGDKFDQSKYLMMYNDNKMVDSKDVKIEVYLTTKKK

B1: sdAb D9 (VHH)
VHH: EVQLQASGGGLAQAGDSLRLSCAASIRTFGSYAMGWFRQAPGKEREFVAAISWSGGDTYADSAKGRFTISRDNAKNMMYLQMNSLAPEDTAVYFCAIVEAKYYISKDARDYGYWGQGTQVFVSS
notes: also called Class C exemplar
B1: the Kd (as a rule, the equilibrium constant for the complex coming apart) came to 0.11 nM; the koff (in general, the rate constant with which the complex falls apart) was determined as 0.00028 s⁻¹; the association rate constant (kon) (in general, a measure of how fast the partners come together) came out at 2.5e+06 M⁻¹ s⁻¹.

B2: sdAb E2 (VHH)
VHH: EVQLQASGGGLVQAGGSLRLTCAASGRTFGSYAMGWFRQAPGKEREFVAAISWSGGDTYADSVKGRFTISRDNAKNTVYLQMNSLAPEDTAVYSCAAVGARYYISKDAKDYGYWGQGTQVTVSS
notes: also called Class A exemplar
In turn, B2 showed a Kd of 0.27 nM, an off-rate (koff) of 0.0035 s⁻¹ and a kon of 1.3e+07 M⁻¹ s⁻¹.
